Patent US20200024330A1

Key:
Assay in all cases: cell-based or functional assay
[1] = target: HIV-1 98IN022 envelope glycoprotein (Env) on pseudovirus (HIV-1)
[2] = target: HIV-1 Env of isolate 92UG114 (HIV-1)
[3] = target: HIV-1 Env of isolate MGRM-D-008 (clade D) (HIV-1)
[4] = target: HIV-1 Env of isolate MGRM-D-012 (HIV-1)
[5] = target: HIV-1 Env of isolate MGRM-D-016 (clade D) (HIV-1)
[6] = target: HIV-1 Env of isolate MGRM-D-019 (HIV-1)
[7] = target: HIV-1 Env of isolate MGRM-G-015 (clade G pseudovirus) (HIV-1)
[8] = target: HIV-1 Env of isolate MGRM-G-019 (clade G pseudovirus) (HIV-1)
[9] = target: HIV-1 Env of pseudovirus 93TH305, clade B (HIV-1)
[10] = target: HIV-1 Env of pseudovirus MGRM-Chronic-B-002, clade B (HIV-1)
[11] = target: HIV-1 JR-CSF envelope protein (Env) on pseudovirus (HIV-1) (UniProt P20871)
[12] = target: HIV-1 MGRM-A-010 envelope glycoprotein (Env) (HIV-1)
[13] = target: HIV-1 MGRM-C-010 Env (HIV-1)
[14] = target: HIV-1 MGRM-C-026 envelope glycoprotein (Env) on pseudovirus (HIV-1)
[15] = target: HIV-1 MGRM-C-027 envelope glycoprotein (Env) on pseudovirus (HIV-1)
[16] = target: HIV-1 Env of isolate 92UG024 (subtype D) (HIV-1)
[17] = target: HIV-1 Env of isolate 98IN022 (pseudovirus) (HIV-1 isolate 98IN022, subtype C)
[18] = target: HIV-1 Env of isolate MGRM-C-013 (pseudovirus) (HIV-1 isolate MGRM-C-013, subtype C)
[19] = target: HIV-1 MGRM-Chronic-B-001 Env (pseudovirus) (HIV-1)
[20] = target: HIV-1 JR-CSF Env D474A (HIV-1 (isolate JR-CSF)) (UniProt P20871)
[21] = target: HIV-1 JR-CSF Env D477A (HIV-1 (isolate JR-CSF)) (UniProt P20871)
[22] = target: HIV-1 JR-CSF Env I165A (HIV-1 (isolate JR-CSF)) (UniProt P20871)
[23] = target: HIV-1 JR-CSF Env L179A (HIV-1 (isolate JR-CSF)) (UniProt P20871)
[24] = target: HIV-1 JR-CSF Env N188A (HIV-1 (isolate JR-CSF)) (UniProt P20871)
[25] = target: HIV-1 Env of isolate MGRM-G-004 (subtype G) (HIV-1)
[26] = target: HIV-1 Env of isolate 98CN006 (HIV-1)
[27] = target: HIV-1 Env of isolate 98IN022 (HIV-1)
[28] = target: HIV-1 Env of isolate TRO.11 (HIV-1)

PGT-143 (4980_N08) (antibody), sequence (VH): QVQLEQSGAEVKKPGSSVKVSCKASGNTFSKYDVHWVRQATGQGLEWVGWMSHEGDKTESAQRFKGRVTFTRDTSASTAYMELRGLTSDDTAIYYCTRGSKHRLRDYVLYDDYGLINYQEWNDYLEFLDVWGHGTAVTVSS
PGT-143 (4980_N08) (antibody), sequence (VL): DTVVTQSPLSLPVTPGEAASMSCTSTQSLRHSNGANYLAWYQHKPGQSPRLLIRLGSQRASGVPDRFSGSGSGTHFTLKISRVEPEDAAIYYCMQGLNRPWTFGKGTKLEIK
PGT-144 (4970_K22) (antibody), sequence (VH): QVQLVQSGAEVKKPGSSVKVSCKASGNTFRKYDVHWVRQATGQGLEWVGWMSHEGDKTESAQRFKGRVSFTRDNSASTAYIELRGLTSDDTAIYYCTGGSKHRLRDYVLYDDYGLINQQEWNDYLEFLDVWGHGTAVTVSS
PGT-144 (4970_K22) (antibody), sequence (VL): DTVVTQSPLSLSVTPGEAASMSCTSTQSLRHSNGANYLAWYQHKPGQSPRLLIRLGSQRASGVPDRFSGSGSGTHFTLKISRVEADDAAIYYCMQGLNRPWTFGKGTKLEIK
PGT-141 (4964_G22; 4993_K13) (antibody), sequence (VH): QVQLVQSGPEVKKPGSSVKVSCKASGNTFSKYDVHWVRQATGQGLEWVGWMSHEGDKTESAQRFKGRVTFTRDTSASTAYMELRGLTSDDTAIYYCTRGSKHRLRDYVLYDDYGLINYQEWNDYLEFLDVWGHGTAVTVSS
PGT-141 (4964_G22; 4993_K13) (antibody), sequence (VL): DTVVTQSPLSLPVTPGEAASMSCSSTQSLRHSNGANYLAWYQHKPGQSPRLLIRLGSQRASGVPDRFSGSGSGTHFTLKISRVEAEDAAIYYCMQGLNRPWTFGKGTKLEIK
PGT-142 (4995_E20) (antibody), sequence (VH): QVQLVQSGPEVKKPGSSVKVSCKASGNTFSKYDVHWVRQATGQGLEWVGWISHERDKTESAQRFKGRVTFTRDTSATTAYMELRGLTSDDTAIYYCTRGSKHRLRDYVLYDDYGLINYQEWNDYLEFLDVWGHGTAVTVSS

1496_C09 (PG9) (TCN-109) (antibody)
IC50 (µg/ml), pseudovirus neutralization [1]: 0.006 µg/mL
IC50 (µg/mL), pseudovirus neutralization [2]: 40.6 µg/mL
IC50 (µg/ml), pseudovirus neutralization [3]: 6.86 µg/mL
IC50 (µg/mL), pseudovirus neutralization [4]: 16.2 µg/mL
IC50 (µg/ml), pseudovirus neutralization [5]: 0.1 µg/mL
IC50 (µg/mL), pseudovirus neutralization [6]: 0.038 µg/mL
IC50 (µg/ml), pseudovirus neutralization [7]: 1.51 µg/mL
IC50 (µg/ml), pseudovirus neutralization [8]: 0.67 µg/mL
IC50 (µg/ml), pseudovirus neutralization [9]: 2.08 µg/mL
IC50 (µg/ml), pseudovirus neutralization [10]: 1.41 µg/mL
neutralization IC50 [11]: < 0.0025 µg/mL
IC50 neutralization [12]: 0.0375 µg/mL
IC50 [13]: 12.4 µg/mL
IC50 (ug/ml), neutralizing activity [14]: 0.113 µg/mL
IC50 neutralization [14]: 0.113 µg/mL
IC50 (ug/ml), neutralizing activity [15]: 2.45 µg/mL
IC50 neutralization [15]: 2.45 µg/mL

4838_L06 (PGT-121) (antibody)
IC50 (µg/mL), pseudovirus neutralization [16]: > 50 µg/mL
IC50 (µg/mL) neutralization [17]: 0.007 µg/mL
IC50 (µg/mL) neutralization [18]: 7.23 µg/mL
IC50, pseudovirus neutralization [19]: 0.102 µg/mL

4858_P08 (PGT-123) (antibody)
IC50 (µg/mL), pseudovirus neutralization [16]: > 50 µg/mL
IC50 (µg/mL) neutralization [17]: 0.011 µg/mL
IC50 (µg/mL) neutralization [18]: 14.9 µg/mL
Fold IC50 increase relative to wild-type [20]: 1.1 fold
Fold IC50 increase relative to wild-type [21]: 2.3 fold
Fold IC50 increase relative to wild-type [22]: 2.2 fold
Fold IC50 increase relative to wild-type [23]: 1.2 fold
Fold IC50 increase relative to wild-type [24]: 1.1 fold
IC50 (ug/ml), neutralizing activity [14]: 0.0031 µg/mL
IC50, pseudovirus neutralization [14]: 0.0031 µg/mL
IC80, pseudovirus neutralization [14]: 0.0094 µg/mL
IC90 (pseudovirus neutralization) [14]: 0.0183 µg/mL
IC95, pseudovirus neutralization [14]: 0.0338 µg/mL
IC50 (ug/ml), neutralizing activity [15]: 0.0169 µg/mL
IC50, pseudovirus neutralization [15]: 0.0169 µg/mL
IC80, pseudovirus neutralization [15]: 0.149 µg/mL
IC90 (pseudovirus neutralization) [15]: > 10 µg/mL
IC95, pseudovirus neutralization [15]: > 10 µg/mL
IC50, pseudovirus neutralization [19]: 0.15 µg/mL

4877_D15 (PGT-122) (antibody)
IC50 (µg/mL), pseudovirus neutralization [16]: > 50 µg/mL
IC50 (µg/mL) neutralization [17]: 0.032 µg/mL
IC50 (µg/mL) neutralization [18]: 32.6 µg/mL
IC50 (ug/ml), neutralizing activity [14]: 0.0089 µg/mL
IC50 (ug/ml), neutralizing activity [15]: 0.0388 µg/mL
IC50, pseudovirus neutralization [19]: 0.138 µg/mL

5123_A06 (PGT-125) (antibody)
IC50 (µg/mL), pseudovirus neutralization [16]: > 50 µg/mL
IC50 (µg/mL) neutralization [17]: 22.1 µg/mL
IC50 (µg/mL) neutralization [18]: > 50 µg/mL
Fold IC50 increase relative to wild-type [20]: 1.4 fold
Fold IC50 increase relative to wild-type [21]: 3.4 fold
Fold IC50 increase relative to wild-type [22]: 2.3 fold
Fold IC50 increase relative to wild-type [23]: 1.3 fold
Fold IC50 increase relative to wild-type [24]: 0.7 fold
IC50 (ug/ml), neutralizing activity [14]: 0.0106 µg/mL
neutralization IC50 [14]: 0.0106 µg/mL
neutralization IC80 [14]: 0.035 µg/mL
neutralization IC90 [14]: 0.0705 µg/mL
neutralization IC95 [14]: 0.134 µg/mL
IC50 (ug/ml), neutralizing activity [15]: > 10 µg/mL
neutralization IC50 [15]: > 10 µg/mL
neutralization IC80 [15]: > 10 µg/mL
neutralization IC90 [15]: > 10 µg/mL
neutralization IC95 [15]: > 10 µg/mL
IC50, pseudovirus neutralization [19]: > 50 µg/mL

5145_B14 (PGT-127) (antibody)
IC50 (µg/mL), pseudovirus neutralization [16]: > 50 µg/mL
IC50 (µg/mL) neutralization [17]: 19.2 µg/mL
IC50 (µg/mL) neutralization [18]: > 50 µg/mL
Fold IC50 increase relative to wild-type [20]: 1.5 fold
Fold IC50 increase relative to wild-type [21]: 1.7 fold
Fold IC50 increase relative to wild-type [22]: 1.7 fold
Fold IC50 increase relative to wild-type [23]: 2.5 fold
Fold IC50 increase relative to wild-type [24]: 0.8 fold
IC50, pseudovirus neutralization [19]: > 50 µg/mL

PGT-121 (antibody)
IC50 neutralization [12]: 2.61 µg/mL

PGT-122 (antibody)
IC50 neutralization [12]: 1.68 µg/mL

PGT-141 (4964_G22; 4993_K13) (antibody)
neutralization IC50 [25]: > 50 µg/mL

PGT-142 (4995_E20) (antibody)
neutralization IC50 [25]: > 50 µg/mL

PGT-143 (4980_N08) (antibody)
neutralization IC50 [25]: > 50 µg/mL

PGT-144 (4970_K22) (antibody)
neutralization IC50 [25]: > 50 µg/mL

PGV04 (antibody)
IC50 (µg/mL), pseudovirus neutralization [2]: 0.461 µg/mL
IC50, pseudovirus neutralization [26]: 1.32 µg/mL
IC50 (µg/mL), pseudovirus neutralization [4]: 0.125 µg/mL
IC50 (µg/mL), pseudovirus neutralization [6]: 0.35 µg/mL
neutralization IC50 [25]: > 50 µg/mL

VRC01 (antibody)
neutralization IC50 [27]: 0.342 µg/mL
IC50, pseudovirus neutralization [4]: 0.216 µg/mL
IC50, pseudovirus neutralization [6]: 0.119 µg/mL
neutralization IC50 [25]: > 50 µg/mL
neutralization IC50 [28]: 0.186 µg/mL
